Here are results for two molecules from patent publication US20160090605A1 (ACADEMIA SINICA, published 2016).

Data set [1] concerns the molecule itself. Put plainly: mbSUS split-ubiquitin interaction assay, full length AFL1 with itself. The protocol: Mating-based Split-Ubiquitin System (mbSUS) assays were performed as previously described using vectors and yeast strains obtained from the Arabidopsis Biological Resource Center. Full length AFL1 as well as putative interactors were expressed in yeast strains THY.AP4 and THY.AP5, respectively, by recombinational in vivo cloning and plated on SC-Leu-Met or SC-Trp-Ura-Met (SC/+AHL) plates for selection. The interaction was tested by X-gal agarose overlay assay.

A further data set has as its target T1, ER-body protein NAI2 (Arabidopsis, UniProt Q9LSB4 25-772, limits assumed).
T1 construct: also called AT3G15950
T1 sequence: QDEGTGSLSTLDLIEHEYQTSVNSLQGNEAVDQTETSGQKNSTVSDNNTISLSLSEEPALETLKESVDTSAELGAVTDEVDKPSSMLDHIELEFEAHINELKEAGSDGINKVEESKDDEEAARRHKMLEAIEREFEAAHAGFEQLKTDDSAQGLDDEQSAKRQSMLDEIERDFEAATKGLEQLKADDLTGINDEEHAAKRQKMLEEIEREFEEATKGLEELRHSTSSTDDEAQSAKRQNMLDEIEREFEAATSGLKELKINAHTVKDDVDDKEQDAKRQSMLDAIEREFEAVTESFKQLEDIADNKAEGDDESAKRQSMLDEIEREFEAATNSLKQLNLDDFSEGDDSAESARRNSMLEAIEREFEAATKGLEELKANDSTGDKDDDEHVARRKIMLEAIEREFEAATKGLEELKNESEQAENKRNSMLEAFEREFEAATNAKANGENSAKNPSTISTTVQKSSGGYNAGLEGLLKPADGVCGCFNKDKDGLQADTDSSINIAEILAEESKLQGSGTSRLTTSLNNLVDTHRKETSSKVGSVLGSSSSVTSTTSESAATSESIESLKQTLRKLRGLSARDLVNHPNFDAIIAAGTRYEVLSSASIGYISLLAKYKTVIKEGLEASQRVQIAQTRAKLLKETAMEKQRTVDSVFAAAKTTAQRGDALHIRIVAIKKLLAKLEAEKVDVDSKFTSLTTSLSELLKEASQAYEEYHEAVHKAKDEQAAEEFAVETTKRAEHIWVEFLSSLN
Put plainly: yeast two hybrid library screen (AFL1 N-terminus). The protocol: A yeast two hybrid library was prepared using mRNA from seedlings exposed to −1.2 MPa low water potential stress for 96 h. The library was prepared using the Cloneminer II cDNA construction (Invitrogen) according to the manufacturer's instructions. Yeast two hybrid screening was performed using the ProQuest Two-hybrid system (Invitrogen) following manufacturer's instructions with an N-terminal fragment of AFL1 (amino acids 1 to 208) as bait. The bait fragment was cloned into destination vector pDEST23 and co-transformed into MaV203 along with clones from the cDNA library using LiAc X transformation. […] Colonies that grew on the selective media were re-streaked and subjected to β-galactosidase filter assay to confirm interaction. Out of approximately 8×10⁵ colony forming units screened, clones of PDI5, NAI2, and TSA1 were detected repeatedly. Most of these clones were C-terminal truncations. Full length cDNA clones of PDI5, NAI2 and TSA1 were obtained (using the cloning procedures described above) and confirmed to interact with the AFL1 bait construct in β-galactosidase filter assays.

B1: At14a-like1 (AFL1), full length (other)
chain: MALSKDLMLKCSEDMMSAYKSACEEHPKLKSFDASLQQRTNKMIDSLTVEDKNGSSSPHDAHMELSKHLVEVTQGVADFITEIEDDVWDNQALKYLVLAYFENTKKTLEIFKTIENCVENAEMGQLLIREALAEFEKESAEKDVGGKKKKYEKTLEDLKSFKEMGDPFDGKVLTTQFERIKKQQESLLEEVSETRKKIQDEISNLEKKTLITNVVFGAAFAIVAVASIALIATGVGAAAGFGALAAPLLAAGWAGVYTTLDKKKDALNKQLEGLKKVEEIEESVEKGIKTNEEATETVSILVDGLEDRIKNMLKLVDNAIDHEDNEAATRIVLTQISKKVEKLTKKITEVGESVEDHSKLIAKARLQVLQKINR
notes: Full-length AFL1; In mbSUS it was a split-ubiquitin fusion expressed in yeast; In BiFC it was a fusion to a YFP half (YFPN or YFPC, the latter MYC-tagged); This entry also stands for native AFL1 in seedling extracts (47 kDa band; co-purified with YFP-AFL1); also called AT3G28270; Full Length AFL1
Turning to B1, the binding result in data set [1] is “binds”.

B2: AFL1 N-terminal fragment (amino acids 1 to 208) (other)
chain: MALSKDLMLKCSEDMMSAYKSACEEHPKLKSFDASLQQRTNKMIDSLTVEDKNGSSSPHDAHMELSKHLVEVTQGVADFITEIEDDVWDNQALKYLVLAYFENTKKTLEIFKTIENCVENAEMGQLLIREALAEFEKESAEKDVGGKKKKYEKTLEDLKSFKEMGDPFDGKVLTTQFERIKKQQESLLEEVSETRKKIQDEISNLEKK
notes: Yeast two hybrid bait in a ProQuest destination vector (printed as pDEST23); also called AFL1 N-terminus; N-terminal domain of AFL1
Regarding B2, the binding result with ER-body protein NAI2 is recorded as “binds”.
